Data taken from patent publication US20120034163A1, “NON-INVASIVE TOOLS FOR DETECTING VULNERABLE ATHEROSCLEROTIC PLAQUES” (UNIVERSITE JOSEPH FOURIER, priority 2009, published 2012).
Where no end group is shown, it is not given here.

Columns and labels:
[1] = target: T1, VCAM-1 expression in the atherosclerotic lesion (Mus musculus, UniProt P29533); experiment: In vivo whole-body planar imaging; design: species or system ApoE−/− mice; details: for Left-to-right carotid activity ratio from quantified planar images compared to EP43: FIG. 8, FIG. 9; for Non invasive imaging of tracer uptake in the carotid atherosclerotic lesion: whole-body planar images, similar dose of tracer, FIG. 6
T1 construct: The inventors observed a positive VCAM-1 staining in the atherosclerotic lesion as compared with a contralateral vessel; from tissue; host or cells: ligated left carotid artery (atherosclerotic lesion) of living ApoE-/- mice
T1 sequence (P29533 25-739): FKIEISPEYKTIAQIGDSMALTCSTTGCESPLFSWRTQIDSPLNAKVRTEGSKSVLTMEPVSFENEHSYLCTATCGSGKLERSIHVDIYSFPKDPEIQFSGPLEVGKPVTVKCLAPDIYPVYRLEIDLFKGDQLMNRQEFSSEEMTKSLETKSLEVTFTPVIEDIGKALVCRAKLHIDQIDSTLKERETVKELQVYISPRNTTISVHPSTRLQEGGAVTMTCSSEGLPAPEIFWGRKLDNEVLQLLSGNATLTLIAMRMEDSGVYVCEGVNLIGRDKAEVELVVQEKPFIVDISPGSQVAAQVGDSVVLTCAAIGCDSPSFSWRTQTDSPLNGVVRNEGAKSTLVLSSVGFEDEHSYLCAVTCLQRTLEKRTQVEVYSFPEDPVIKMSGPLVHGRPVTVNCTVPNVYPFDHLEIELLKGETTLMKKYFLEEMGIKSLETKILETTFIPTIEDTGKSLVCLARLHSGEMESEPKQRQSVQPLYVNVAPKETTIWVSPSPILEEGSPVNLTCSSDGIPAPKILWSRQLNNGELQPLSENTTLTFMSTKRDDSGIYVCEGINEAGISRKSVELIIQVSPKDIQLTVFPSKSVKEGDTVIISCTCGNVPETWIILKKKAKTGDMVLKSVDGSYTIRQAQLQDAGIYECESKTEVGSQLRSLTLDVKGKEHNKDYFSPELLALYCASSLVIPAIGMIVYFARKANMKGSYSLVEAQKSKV
Experimental: In vivo planar imaging was performed using a small-animal dedicated gamma-camera equipped with a parallel-hole collimator.

[2] = target: T1, VCAM-1 expression in the atherosclerotic lesion; experiment: Carotid activity ratios from gamma-well counting of excised vessels and blood; assay type: in vivo, ApoE−/− mice; details: for Left-to-right carotid artery activity ratio compared with EP43: FIG. 4; for Left carotid-to-blood activity ratio compared with EP43: FIG. 5
Text: The inventors also analyzed the left-to-right carotid activity ratios (FIG. 1) and left carotid-to-blood activity ratios (FIG. 2). These ratios were obtained from gamma-well counting of excised vessels and blood.

[3] = Organ biodistribution of 99mTc-labelled tracers by gamma-well counting of excised organs; details: 3 hours after injection
Experimental: An experimental model of ApoE^−/− mice with left carotid artery ligation was used.
Left carotid artery ligation was performed under anesthesia and the animals were returned to their cages. Three weeks later, the animals were re-anesthetized and the radiotracers were injected in a lateral tail vein. Planar imaging was performed for 3 hours before the animals were euthanized. The major organs were excised, weighed and gamma-well counted for the determination of the tracers' biodistribution.

[4] = target: T2, VCAM-1 expression in atherosclerotic lesions (Mus musculus, UniProt P29533); experiment: In vivo pinhole SPECT imaging; design: species or system ApoE−/− mice
T2 construct: The inventors observed a positive VCAM-1 staining in the atherosclerotic lesion as compared with a contralateral vessel; from tissue; host or cells: ligated left carotid artery (atherosclerotic lesion) of living ApoE-/- mice
T2 sequence (P29533 25-739): T1 sequence (P29533 25-739)
Experimental: In vivo pinhole SPECT imaging was performed using a small-animal dedicated gamma-camera equipped with a pinhole collimator for high-resolution imaging.

VCAM-1 = target: T3, VCAM-1 (Homo sapiens, UniProt P19320); details: Ling et al. (2000); cited from earlier work
T3 sequence (P19320 25-739): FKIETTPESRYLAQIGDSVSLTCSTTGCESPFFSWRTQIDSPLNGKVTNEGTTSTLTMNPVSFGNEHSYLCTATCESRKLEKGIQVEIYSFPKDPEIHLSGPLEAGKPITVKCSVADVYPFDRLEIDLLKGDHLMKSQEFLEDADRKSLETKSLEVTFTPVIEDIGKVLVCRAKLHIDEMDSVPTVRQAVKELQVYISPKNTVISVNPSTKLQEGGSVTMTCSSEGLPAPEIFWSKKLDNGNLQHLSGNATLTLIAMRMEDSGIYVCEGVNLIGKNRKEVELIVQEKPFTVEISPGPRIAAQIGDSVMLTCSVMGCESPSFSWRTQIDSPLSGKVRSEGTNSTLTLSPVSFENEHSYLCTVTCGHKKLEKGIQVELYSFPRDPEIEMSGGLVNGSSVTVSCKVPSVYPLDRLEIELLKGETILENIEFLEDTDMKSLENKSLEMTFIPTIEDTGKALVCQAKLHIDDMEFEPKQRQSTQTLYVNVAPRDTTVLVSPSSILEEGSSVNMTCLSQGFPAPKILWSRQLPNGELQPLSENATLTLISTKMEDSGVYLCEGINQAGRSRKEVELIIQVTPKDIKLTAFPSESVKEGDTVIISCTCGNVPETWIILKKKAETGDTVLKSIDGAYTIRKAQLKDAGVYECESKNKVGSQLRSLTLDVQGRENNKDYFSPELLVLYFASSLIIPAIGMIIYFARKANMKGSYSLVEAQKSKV

[5] = high resolution pinhole SPECT, FIG. 10

Sequence | Left-to-right carotid activity ratio from quantified planar images compared to EP43 [1] | Left-to-right carotid artery activity ratio compared with EP43 [2] | Left carotid-to-blood activity ratio compared with EP43 [2] | Non invasive imaging of tracer uptake in the carotid atherosclerotic lesion [1] | Binding to VCAM-1 (VCAM-1) | further results
HGRANLRILARY (not fully specified; also: 99mTc label) [EP43] |  |  |  | allowed the detection of VCAM-1 expression in the atherosclerotic lesion |  | Quantification of planar images, compared with other evaluated tracers ([1]; FIG. 7): superiority; Left carotid activity, compared among tracers [3]: highest left carotid activity; Tracer activity in the atherosclerotic lesion versus contralateral, control carotid [3]: significantly higher; Left-to-right carotid activity ratio versus B2702-p ([2]; gamma-well counting, FIG. 1): significantly higher; Left carotid-to-blood activity ratio versus B2702-p ([2]; gamma-well counting, FIG. 2): significantly higher; Tracer activity in the atherosclerotic lesion versus contralateral vessel, image quantification ([4]; all animals, FIG. 11): significantly higher mean tracer activity; In vivo SPECT imaging of VCAM-1 expression in atherosclerotic lesions ([4]; conclusion): allowed in vivo SPECT imaging of VCAM-1 expression in atherosclerotic lesions; Tracer activity in the right carotid area [4, 5]: no significant tracer activity could be detected; Tracer uptake at the atherosclerotic lesion (left carotid) [4, 5]: uptake at the level of the atherosclerotic lesion
HGRENLRIALRY [B2702-p, parent tracer, reference compound] |  |  |  | high circulating blood activity precluded the non invasive imaging | bind specifically | 
YRLAIRLNER RENLRIALRY (YRLAIRLNERRENLRIALRY; B2702-rp) |  |  |  |  | bind specifically | 

More lines, main results first:

Left-to-right carotid activity ratio from quantified planar images compared to EP43 [1] | Left-to-right carotid artery activity ratio compared with EP43 [2] | Left carotid-to-blood activity ratio compared with EP43 [2] | Sequence | Non invasive imaging of tracer uptake in the carotid atherosclerotic lesion [1] | Binding to VCAM-1 (VCAM-1) | further results
did not display improved | did not display improved | did not display improved | HGRANLRILAAY (also: 99mTc label) [EP52] |  |  | 
did not display improved | did not display improved | did not display improved | HGRANLRILARA (also: 99mTc label) [EP51] |  |  | 
